Reference: patent publication US20230374534

Legend:
[1] = molecular target: CBF1-Myc (from CBF1-Myc^OE Arabidopsis plants)
[2] = molecular target: His-CBF1 (histidine-tagged C-repeat-binding transcription factor 1), recombinant
Sequence of His-CBF1 (histidine-tagged C-repeat-binding transcription factor 1), recombinant (chain, as listed by the source): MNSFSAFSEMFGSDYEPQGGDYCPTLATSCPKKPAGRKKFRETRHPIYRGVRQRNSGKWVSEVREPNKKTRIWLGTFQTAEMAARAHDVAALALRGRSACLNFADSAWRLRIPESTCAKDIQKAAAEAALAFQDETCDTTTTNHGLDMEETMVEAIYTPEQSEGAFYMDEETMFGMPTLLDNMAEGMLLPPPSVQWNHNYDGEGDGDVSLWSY

Sequence of CBF1-Myc (from CBF1-Myc^OE Arabidopsis plants) (chain, as listed by the source): as above

Row | Protein | cold-induced structural switching of CBF1-Myc oligomers in planta (non-reducing gel, CBF1-Myc^OE/Col-0 against CBF1-Myc^OE/trx-h2) [1] | EMSA: mobility shift of the biotin-labeled COR15a promoter probe with His-CBF1 [2] | dissociation of CBF1 oligomers into monomers (Trx system with NADPH, Trx reductase and 5 µM Trx-h2; non-reducing SDS-PAGE, western blot) [2]
1 | Trx-h2, endogenous protein in Arabidopsis plants (protein) GGALSTVFGSGEDATAAGTESEPSRVLKFSSSARWQLHFNEIKESNKLLVVDFSASWCGPCRMIEPAIHAMADKFNDVDFVKLDVDELPDVAKEFNVTAMPTFVLVKRGKEIERIIGAKKDELEKKVSKLRA | gradually dissociated into small oligomers and monomers by cold (lanes 2-4). By contrast, no structural change was detected in CBF1 extracted from CBF1-Myc^OE/trx-h2 plants |  | 
2 | Thioredoxin h2 (Trx-h2), purified recombinant protein (protein) MGGALSTVFGSGEDATAAGTESEPSRVLKFSSSARWQLHFNEIKESNKLLVVDFSASWCGPCRMIEPAIHAMADKFNDVDFVKLDVDELPDVAKEFNVTAMPTFVLVKRGKEIERIIGAKKDELEKKVSKLRA |  | Treatment with DTT or Trx-h2 ... induced a distinct mobility shift in the probe interacting with His-CBF1 | reduced and dissociated CBF1 oligomers into monomers
3 | Trx-h2(C/S), redox-insensitive point mutant of Trx-h2, recombinant (protein) MGGALSTVFGSGEDATAAGTESEPSRVLKFSSSARWQLHFNEIKESNKLLVVDFSASWSGPSRMIEPAIHAMADKFNDVDFVKLDVDELPDVAKEFNVTAMPTFVLVKRGKEIERIIGAKKDELEKKVSKLRA |  | but not H2O2 or Trx-h2(C/S), induced a distinct mobility shift | 
